Assays:
[1] = biological target: T1, RNA polymerase holoenzyme with sigma A (RNAP-σA) (Mycobacterium smegmatis SM07, UniProt A0QSL8;P60281;A0QS66;A0QWT1;A0QW02 1-350;1-1169;1-1317;1-107;1-466); test: EMSA; conditions: protein: native; chain copies: 2;1;1;1;1; label: 5'-32P on one strand; blunt
[2] = biological target: T1, RNA polymerase holoenzyme with sigma A …; test: EMSA; closed complex (KB), on ice 20 min; conditions: protein: native; chain copies: 2;1;1;1;1; label: 5'-32P on one strand; blunt

B1: PgyrB1 (dsDNA)
DNA 1: GGTAAAAACGAGGCCGAGCACTCGGCCCTGGCGCCCGATCACGGTACAGTGGTGTGCGACCCCCTGCGGCGACTC
DNA 2: GAGTCGCCGCAGGGGGTCGCACACCACTGTACCGTGATCGGGCGCCAGGGCCGAGTGCTCGGCCTCGTTTTTACC
B1 was tested, and the Kd [1] was 68 ± 12.2 x 10^7 M (as printed; exponent implausible, probably nM) and the Ka [2] was 2.1 ± 0.03 10^7 M^-1.
